{"source": "paper PMC4428678", "target": "His-tagged human CRMP-2 (residues 1-490) (human) (UniProt Q16555)", "experiment": "SPR", "note": "pKd: −log10 of the molar value."}
{"substance": "Recombinant human calmodulin (from UniProt P0DP23 1-149) (natural protein)", "values": [{"measurement": "pKd", "value": 4.12}]}
